The text below walks through data of article PMC9701387, “CDH17 nanobodies facilitate rapid imaging of gastric cancer and efficient delivery of immunotoxin” (Biomaterials Research, 2022).

To fix the notation:
B1: CDH17 domain 1-3 (human), recombinant (domain or fragment)
chain: QEGKFSGPLKPMTFSIYEGQEPSQIIFQFKANPPAVTFELTGETDNIFVIEREGLLYYNRALDRETRSTHNLQVAALDANGIIVEGPVPITIKVKDINDNRPTFLQSKYEGSVRQNSRPGKPFLYVNATDLDDPATPNGQLYYQIVIQLPMINNVMYFQINNKTGAISLTREGSQELNPAKNPSYNLVISVKDMGGQSENSFSDTTSVDIIVTENIWKAPKPVEMVENSTDPHPIKITQVRWNDPGAQYSLVDKEKLPRFPFSIDQEGDIYVTQPLDREEKDAYVFYAVAKDEYGKPLSYPLEIHVKVKDINDNPPTC
notes: Cadherin-17 (CDH17, LI-cadherin), human, extracellular cadherin domains 1-3; soluble protein of about 40 kD; the supplementary methods (Additional file 1) may hold them; also called extracellular domain 1-3 of CDH17; CDH17 protein; source: E. coli BL21 (DE3), purified (Ni-NTA, Superdex gel filtration)
B2: A1 nanobody (VHH)
VHH: AVQLVESGGGLVQAGDSLRLSCAASGRTFSSNGMGWFRQAPGKGREFVAAISWNAGTTLYTDSVKGRFTISRDNAKNTVYLQMNSLKPEDTAIYYCAAREYYGGSYYPSREYEYGYWGQGTQVTVSS
notes: from a naive alpaca VHH phage library; HA tag joined to the C-terminus by a GA linker; a cysteine is attached at the end of the HA tag; The purified protein was confirmed with His tag and HA tag antibodies; also called CDH17 nanobody A1; source: E. coli (pColdII vector), purified (Ni-NTA); not shown: HA, C-terminal, kept
B3: E8 nanobody (VHH)
VHH: AVQLVESGGGLVQPGGSLRLSCTASGSILSFNSMGWHRQAPGRQRELVAGISIHKTSSNYANFVKGRFTISRDDAKNTVYLQMNSLKPEDTAVYYCAAVQRGQSRISYWGQGTQVTVSS
notes: from a naive alpaca VHH phage library; shorter CDR3 than A1; HA tag joined to the C-terminus by a GA linker; a cysteine is attached at the end of the HA tag; The purified protein was confirmed with His tag and HA tag antibodies; also called CDH17 nanobody E8; naked E8 nanobody; source: E. coli (pColdII vector), purified (Ni-NTA); not shown: HA, C-terminal, kept

Assay [1] has as its target E8-PE38 immunotoxin (alpaca (Lama pacos) | Pseudomonas …). As to the kind of experiment: SPR; format and conditions not told in the text shown. As to conditions: both partners purified.
In assay [2] the target is B1. The assay is described as above. As to conditions: both partners purified.

The term Kd denotes the concentration at which binding is half-saturated. On to B1, for which the Kd in assay [1] stood at 86.9 nM.
For the molecule B2, in assay [2], the Kd amounted to 377 nM.
Turning to B3, the Kd in assay [2] worked out at 70.3 nM.
